Assay [1] has as its target ZF-NB23.
For assay [2], the target named is ZF-NB23. This is another data set of the same source.
The target in assay [3] is ZF-NB23. The source holds these as a separate data set.

Consider one substance from publication PMC13389190.

ZF-NB23, sequence (heavy, as listed by the source): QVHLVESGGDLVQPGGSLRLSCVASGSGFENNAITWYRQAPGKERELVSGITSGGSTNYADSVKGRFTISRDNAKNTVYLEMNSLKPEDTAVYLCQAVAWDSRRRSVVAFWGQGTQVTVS

Regarding “recombinant trimeric SARS-CoV-2 spike protein (from UniProt P0DTC2 14-1273) (natural protein)”, the MDC (minimal detectable concentration of Spike in the ZF-NB23 / NB15-T7 RNAP sensor) with ZF-NB23 [1] turned out to be 13 pM. Besides, the MDC (minimal detectable concentration of Spike in the fully de novo sensor) in the assay with NB15_C1-T7 RNAP and with ZF-NB23_D1 was 33.3 nM each time. This substance registered an MDC (minimal detectable concentration of Spike in the ZF-NB23 / NB15-T7 RNAP sensor, 10% nasal swab sample) with ZF-NB23 [2] of 40 pM. The MDC (minimal detectable concentration of Spike, trehalase / glucose read-out) in the assay with ZF-NB23 [3] was determined as 330 pM.
